Here are results for 2 substances from publication PMC6953809.

Broadly, the stoichiometry N is the number of molecules, sites or subunits per partner or assembly.

Assay [1] deals with EGFP-rGR as used in the number and brightness assay (Fig 7) and in the ccN&B with alternative ligands (Fig 9) (rat) (UniProt P06536). Description: number and brightness assay (N&B); living 3617 cells, transiently transfected, nucleoplasm, 100 nM corticosterone; average molecular brightness (ε) in one channel with different co-expressed partners.
For assay [2] the target is unchanged. In words: cross-correlation number and brightness assay (ccN&B); living 3617 cells +tetracycline, transiently transfected, nuclear Bcc relative to 100 nM corticosterone (100%); 100 nM of alternative ligands (cortisol, prednisolone, dexamethasone, aldosterone) or dexamethasone 10 nM + aldosterone 10 nM, aldosterone 10 nM + RU486 1 μM, corticosterone 10 nM + RU486 1 μM.

In assay [1], “EGFP-rGR as used in the number and brightness assay (Fig 7) and in the ccN&B with alternative ligands (Fig 9) (from UniProt P06536 1-795) (receptor)” registered an average molecular brightness (ε) of EGFP-rGR paired with mCherry-rGR, percent of the +mCherry reference of 63.3% and a stoichiometry N of 2.

Regarding “mCherry-tagged rat mineralocorticoid receptor, transiently expressed in 3617 cells (from UniProt P22199 1-981)”, in assay [2], the Bcc value with 100 nM cortisol, percent of the Bcc value with corticosterone is 70% and the Bcc value with 100 nM prednisolone, percent of the Bcc value with corticosterone came out at 60%.
